Experiment: soluble fraction after stress (log2 fold change); higher = more stays soluble; pooled small domains, quantitative proteomics
Conditions: stress: pH 4
Summary of the method: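 Following acid stress at pH 4, the amount of each small protein domain still soluble was measured in pooled custom libraries by high-throughput quantitative proteomics. Its fold change, on a log2 scale, is higher when more of the domain stayed soluble. This fold change is taken as a measure of aggregation propensity.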

Row | Sequence | soluble fraction (log2)
1 | HMQLEPLVTSVIPVNFAKASDISGTIKGKEVGLLSERGNITAENRTNVLIVKDIRKSVDEINAMVKRLD | 0.151
2 | HMQLFKFKNAMMELAKNKNITLDTAEKAIGLEAGFTELVARGVKELALSDVIKISKYFNTTMDSVLD | -0.995
3 | HMQLPFTPREHEITQLLSRGLSNRQIAEALSLSVRTVEGHIYQASTKLGISSRSELAVLVGQFA | -0.967
4 | HMQLSQLLQPFDINAFKGHPLYTEENVKMFNDYTNRVKEWTKGTPYEQYWVTKEGQPTMLAWDSFKK | -1.07
5 | HMQLTQEAIENLFKITTAKKFREELEKLVVTDSEKKAFAYFTVYHPKLKELPFAILKSVENYTGISI | -0.319
6 | HMQLVPGIGRLSARELEVFTLIGRGLGTSEIGKKLGVSAYTVQTHRNHIKEKLNLPNAAAITYWAIQWAHG | -0.338
7 | HMQMEDTDALLQVAKEVVAENQDTVEAYLGGREKAFASLIGAAMKKTRGKANPKVIRQLILDLIQ | -0.432
8 | HMQMEISQRIKLERQTLKWTQEELADKIFVSKRTISNWETGRTVPDIESVLRLAKVFHVSLEDLLL | -0.021
9 | HMQMEYEKAIAYILDKIKSGELSIGSKLPAERVIADTLHIGRNSTREALSILHGMGMVDRVHGSGNYISEH | -0.111
10 | HMQMLQDPFLNALRKEHVPVSIYLVNGIKLQGQVESFDQYVVLLRNTSVTQMVYKHAISTIVPARAVSL | -0.412
11 | HMQMRKENKILVTDIGEIDEVKVIFDDDNKPYLYSYNGEDEFYRPDETYKFFDNKEQAEEYVREN | -0.891
12 | HMQMSPREKMIYSFIESHPGTKSGEIAEKLNVPLPTVKRILSEMVSGNFIAKHGSGIGTNYSTEK | ≥ 0.43
13 | HMQMSWDAVKARLQDIVNNEDKTKPFNDEMLASKLKEQGIEIARRTVVKYRQQLGIPAARLRKK | -0.17
14 | HMQNAETPDVAAEFRTWTSADGQFQVIAKLVKLDGESVHLERQDDGRQIAVPLGKLSSEDRLFLRGVRP | -0.0636
15 | HMQNEQIAFSKFLQEVDSGRVVQVEIQGNNIKGILSDGSKFYTYSPNYPELVGKLSEKGVNIVASPVE | 0.0117
16 | HMQNFLSITSKEKIDIGNFQLISFKFENNLYDYVISGNKSELLIFQEKTIENNNENIEKITSNF | -0.847
17 | HMQNLETVEEIKELALNYLDKYQPSKKSLQVYLFRKAIDAQSNSVEKSEILKKIETVLTDLEEQGILNDAL | -0.139
18 | HMQNMVYVATKDIPAGGVIDQDSVSKTAISTSIDTSLYITDDDLGKIAVVNISQGQSVFSNMVGT | -0.585
19 | HMQNNITISKEIELRTGPDDTYPTLKKVTAGDNVEMLSKSDTWYEIKTNDSFVGWVPGWSIL | -0.656

Row | Sequence | soluble fraction (log2)
20 | HMQNSYSVEDLALKAGLSVDTIRYYQGLDLIAPPQKNGRRAIYGDEHLSRLDEIKKLALEGFSLRQISLLK | -1.02
21 | HMQNYNLTQQEKKVLQLLVSGKSYKMIAAELNVAFDTVKSHITNIYSKLHVHSGTEAVSVAIRDKI | 0.199
22 | HMQPDDELVRLLLIKIFNDKQLKVNPAVINYLLRRIDRSFESINNFVKKIDEFSLEKGRKITVNLVSGFF | -1.43
23 | HMQPFTELTPREREILGHLAEGQSNKVIARHLDISDGTVKLHVKAILRKLGVHSRVEAAVMAVEHGIR | 0.4
24 | HMQPIEIQDRITKAFERSAALEAKNINVEVDGHTVKLTGTVHSLTEKEEARKAAFFAPGVTKVENHLIVDY | -0.0498
25 | HMQPMIQIHTLANHAPVALHIKRNTQRNIIIRARDASSLNLSIPKWFSPAQLQNWLRDNEATLIRILQQAP | -0.256
26 | HMQPPKIISTVEPYREVVREYLKQGVEMTAIWQRLRENYQYTGSYSSVRRFVAQLEPRQPEA | -0.135
27 | HMQPQLFRVIADDGLNIRSGPGPEYPPVAPMLRKGTQVELLQAGDRWSKVEVVGSTDVEGWVNQRYLQAV | 0.0927
28 | HMQPSQTLSATVEFPDRLDRFLALAFPEVSRARFQRLIAEGHVSVEGVPATEIRHKLKAGQRVEAVIPPA | 0.197
29 | HMQPTVEGLMKALETMTFNERTALALHYGLTGRQPMTFMAIGRYLGISDGRAEALVNSAIRKLR | 0.0497
30 | HMQQGVEQLPVTEVGGRLMHYYEVQPKETLYSLSHKLGVGQEYIEQHNPSVRGGLRAFMTLYFPAA | -0.12
31 | HMQQIAVDLSEFKPRLMRDMSSMLAGLYTHDLDLSSLDFSKVANFTFMFRGAIITGTLKMPKI | 0.109
32 | HMQQLDDDTVAYVADNGIAVKSKNGKELSVDTSGLSYDIIMDMFRNLPRNGDFFSSKYWSDNIQKAQAR | -1.34
33 | HMQQLIEFSVTKGHPWINKKIMDLNLPENQLILTIQREGHVVSAEGKTIILENDRITISTDDR | -1.43
34 | HMQQPVVVQQNQTVRVVTGGPGFQVANEGRALNNGLAGQVVQVRLGNGQIISGIARAGGIVEIL | 0.22
35 | HMQQSQLDDIKSVVGGDEGYNKLREWTQANVPDETLKAFDKILDTQDPTMIKVAVEGFAAQMRQAE | -0.508
36 | HMQQTAEDWKNKGDSLTAQSEYVEAIAAYDEAIRLDPNYAPAWSNKGNALKNLGEYYKAIQAYDEAIRL | -1
37 | HMQQYLDAYDKALAFGIAMNKLPSYENLTLDDKEDVDKLKEIYDGMSNYEKTFVAKDFTDKLDRYVKRIE | 0.144
38 | HMQRADYLILYYIKMQAEQHPDSKVYLADLAAVMGLKVTELSKAVEKLQDNGFVAWKTDREAGRTYVELS | -0.89
